The values that follow are results of earlier work, collected in patent US7419780B2, “Methods and assays for screening protein targets” (The Trustees of Columbia University in the City of New York, priority 2000, dated 2008).

The conditions of the data set: substrate nitrocefin.

B1: E. cloacae P99 wt: wild-type E. cloacae P99 cephase (protein, UniProt P05364 21-381, looked up)
Beta-lactamase: TPVSEKQLAEVVANTITPLMKAQSVPGMAVAVIYQGKPHYYTFGKADIAANKPVTPQTLFELGSISKTFTGVLGGDAIARGEISLDDAVTRYWPQLTGKQWQGIRMLDLATYTAGGLPLQVPDEVTDNASLLRFYQNWQPQWKPGTTRLYANASIGLFGALAVKPSGMPYEQAMTTRVLKPLKLDHTWINVPKAEEAHYAWGYRDGKAVRVSPGMLDAQAYGVKTNVQDMANWVMANMAPENVADASLKQGIALAQSRYWRIGSMYQGLGWEMLNWPVEANTVVEGSDSKVALAPLPVAEVNPPAPPVKASWVHKTGSTGGFGSYVAFIPEKQIGIVMLANTSYPNPARVEAAYHILEALQ
One may read the Km as the concentration of substrate that gives half-maximal velocity. Broadly, the kcat is the maximal rate divided by the concentration of active sites. On to B1, for which the “% WT (percentage of wild-type kcat/Km as calculated in that experiment)” value was 100%, the Michaelis constant (Km) was 25 ± 1 µM and the kcat was 780 ± 30 s⁻¹.
